Values quoted from earlier work as cited in patent publication US20250304696A1, “METHODS AND COMPOSITIONS FOR TREATING BARTH SYNDROME” (PROVENTION BIO, INC., priority 2021, published 2025).

B1: inebilizumab (antibody, chains of the INN, looked up, V domains shown)
VH: EVQLVESGGGLVQPGGSLRLSCAASGFTFSSSWMNWVRQAPGKGLEWVGRIYPGDGDTNYNVKFKGRFTISRDDSKNSLYLQMNSLKTEDTAVYYCARSGFITTVRDFDYWGQGTLVTVSS
VL: EIVLTQSPDFQSVTPKEKVTITCRASESVDTFGISFMNWFQQKPDQSPKLLIHEASNQGSGVPSRFSGSGSGTDFTLTINSLEAEDAATYYCQQSKEVPFTFGGGTKVEIK
notes: cell depleting agent

Test system: depleted cell types (B cells)
Conditions: patients receiving depleting agents

Molecule	time to recover the depleted cell types
ocrelizumab	up to a year
rituximab	up to a year
B1	up to a year
